Measurements from US20200399375A1 (SUZHOU SUNCADIA BIOPHARMACEUTICALS, published 2020).

B1: HRP00049: 9-2(H2/L10) IgG4 (AA)(S228P) (antibody, V domains shown)
VH: QVQLQESGPGLVKPSQTLSLTCTVSGGSISNDYWTWIRQHPGKGLEYIGYISYTGSTYYNPSLKSRVTISRDTSKNQFSLKLSSVTAADTAVYYCARSGGWLAPFDYWGRGTLVTVSS
VL: DIVMTQSPDSLAVSLGERATINCKSSQSLFYHSNQKHSLAWYQQKPGQPPKLLIYGASTRESGVPDRFSGSGSGTDFTLTISSLQAEDVAVYYCQQYYGYPYTFGGGTKVEIKR
notes: kappa light chain; also called humanized antibody 9-2
B2: murine antibody of hybridoma clone 9-2 (antibody, V domains shown)
VH: EVQLQESGPGLAKPSQTLSLTCSVAGYSITNDYWNWIRKFPGNKLEYMGYISYTGSTYYNPSLKSRLSITRDTSKNQYYLQLNSVTAEDTAIYYCARSGGWLAPFDYWGRGTTLTVSS
VL: DIVMSQSPSSLVVSVGEKVIMSCKSSQSLFYRSNQKNSLAWYQQKPGQSPKLLIYGASTRESGVPDRFTGSGSGTDFTVTISSVKAEDLAVYYCQQYYGYPYTFGGGTKLEIK
notes: Mouse hybridoma antibody; also called hybridoma antibody 9-2; murine antibody 9-2
B3: 9-2 chimeric antibody (antibody, V domains shown)
VH: B2 VH
VL: B2 VL
notes: also called the chimeric antibody (of 9-2)
B4: chimeric antibody of 24D5 with a back-mutation from serine to cysteine at position 96 (antibody, V domains shown)
VH: QVQLQQPGAELVKPGASVKLSCKASGYTFTSYWMHWVQQRPGQGLEWIGRIHPNSGGTSYNEKFKNRATLTVDKSSSTAYMQFSSLTSEDSAVYYCARGGSSYDYFDYWGQGTTLTVSS
VL: DIVLTQSPASLAVSLGQRATISCRASESVSIHGTHLMHWYQQKPGQPPKLLIYAASNLESGVPARFSGSGSETDFTLNIHPVEEEDATTYFCQQSFEDPLTFGAGTKLELK
notes: it is put on the VH because the printed VH has S at 96 and C at 22 (the disulfide partner named); also called 24D5 chimeric S96C
B5: HRP00052: 24D5(GF) IgG4 (AA) (S228P) (antibody, V domains shown)
VH: QVQLVQSGAEVKKPGASVKVSCKASGYTFTSYWMHWVRQAPGQGLEWMGRIGPNSGFTSYNEKFKNRVTMTRDTSTSTVYMELSSLRSEDTAVYYCARGGSSYDYFDYWGQGTTVTVSS
VL: DIVLTQSPASLAVSPGQRATITCRASESVSIHGTHLMHWYQQKPGQPPKLLIYAASNLESGVPARFSGSGSGTDFTLTINPVEAEDTANYYCQQSFEDPLTFGQGTKLEIKR
notes: kappa light chain; also called 24D5 29H1 GF; humanized antibody 24D5

Columns and labels:
[1] = biological target: T1, PD-L1 Fc fusion protein: PD-L1 (ECD)-Fc (human IgG1) (human); assay: blocking ELISA, PD-L1(ECD)-Fc coated, competitor biotin-PD-1-Fc
T1 construct: Coated on the plate in Tests 1 to 3; also called huPD-L1-Fc; VKL-PD-L1(ECD)-Fc(human IgG1)
Method: The dilution of biotin (Dojindo Chemical, LK03: 3 samples) and avidin (Sigma, S2438-250UG) was 6% BSA (diluted with PBS containing 0.1% Tween20), and PBS was used as coating solution. Microtitration plates were directly coated with 1 μg/ml ([…]) of PD-L1(ECD)-Fc(SEQ ID NO: 4) and incubated at 4° C. overnight. The plate was washed three times and was blocked for 2h at 37° C. with 3% BSA(diluted with PBS containing 0.1% Tween20). The plate was washed three times and 50 μl/well of cell supernatant was added to each well. Then 50 μl/well of bio-PD-1-Fc (biotin-labeled PD-1-Fc, SEQ ID NO: 5, 2 μg/ml, PD-1-FC was labeled according to the method of Dojindo Chemical Kits Biotin Labeling Kit-NH2, LK03: 3 samples) was added to each well, well-mixed by vortex, and incubated at 37° C. for 1 h. The plates were washed 6 times, followed by addition of 50 μl/well Streptavidin-Peroxidase Polymer (S2438-250UG, Sigma, which was diluted at a ratio of 1:400), and incubated on shaker for 50 min at room temperature. The plate was washed 6 times, and then I00 μl/well of TMB was added, and incubated for 5-10 min at 37° C. Then the reaction was terminated with addition of 100 μl/well of 1M H2SO₄. The absorbance value was read on microplate reader (BMG Labtech, NOVOStar) at 450 nm, and the IC₅₀ value for blocking the binding of PD-1 antibody to ligand PD-L1 was calculated.

[2] = biological target: T2, cynomolgus PD-L1 antigen (Cyno PD-L-his, Sino 90251-C08H-100) (cynomolgus, UniProt G7PSE7 19-239); assay: Biacore X100, antibody captured by anti-human antibody on CM5, antigen in flow, 1:1 Langmuir
T2 construct: Bought protein; also called CynoPD-L1-his; not shown: His tag

[3] = biological target: T3, human PD-L1 antigen (huPD-L1-his, Sino biological, 10084-H08H-200) (human, UniProt Q9NZQ7 19-239); assay: as above
T3 construct: Bought protein; also called human PD-L1-his; not shown: His tag

[4] = biological target: T1, PD-L1 Fc fusion protein: PD-L1 (ECD)-Fc …; assay: blocking ELISA, PD-L1(ECD)-Fc coated, competitor biotin-human B7.1
[5] = biological target: T1, PD-L1 Fc fusion protein: PD-L1 (ECD)-Fc …; assay: hybridoma screening, binding ELISA on coated PD-L1(ECD)-Fc (Test 1)
Method: On day 10-11 after fusion, an ELISA assay was performed on PD-L1 binding according to the density of the growing cells (see Test 1). For the positive cells detected in the ELISA assay (Test 1), blockade in PD-L1/PD-1 binding was detected via ELISA analysis (see Test 2). Medium in the positive wells was changed and the positive cells were expanded to a 24-well plate depending on cell density. After re-testing, the cells transferred into the 24-well plate were used for breed conservation and first sub-cloning. The positive cells during the first sub-clone screening (see Test 1) were used for breed conservation and subjected to a second sub-cloning. The positive cells during the second sub-cloning were (see Test 1) used for breed conservation and protein expression. Hybridoma cells having blocking effect on PD-L1 and PD-1 binding (see Test 2) were obtained by multiple cell fusions.
Microtitration plates were directly coated with 1 μg/ml ([…]) of PD-L1(ECD)-Fc(SEQ ID NO: 4) and incubated at 4° C. overnight. Then the plates were blocked with 150 μl/well of PBS containing 5% Skim Milk(BD, 232100) and incubated at 4° C. overnight. […] The reaction was stopped by the addition of 50 μl/well of 1M H₂SO₄ to each well and the OD value was read on an ELISA microplate reader (BMG Labtech, NOVOStar) at a wavelength of 450 nm.

[6] = biological target: T3, human PD-L1 antigen (huPD-L1-his, Sino …); assay: BIACORE (Test 4)
Excerpt: The anti-human capture antibody was covalently linked to the CM5 biochip (GE, BR-1000-12) according to the method described in the anti-human trapping kit (GE, BR-1008-39) instructions for affinity capturing the PD-L1 antibody of the present invention. Then, a series of concentrations of human PD-L1 antigen (Sino biological, 0084-H08H-200) were flowed through the surface of the biochip, and the reaction signal was detected in real time using a Biacore instrument (GE, BiacoreX100) to obtain the association and dissociation curves. Finally, the affinity values were obtained by fitting. After each cycle of dissociation was finished in the experiment, the biochip was washed and regenerated with regeneration solution in the anti-human capture kit (GE). The data obtained was analyzed by GE's BIA evaluation software using a 1:1(Langmuir) binding model. Ka (kon), kd (koff) and KD values were determined by the assay. The affinity of hybridoma antibodies and humanized antibodies has been summarized in other examples.

[7] = biological target: T3, human PD-L1 antigen (huPD-L1-his, Sino …); assay: affinity measurement; method and antigen not named in the sentence (PD-L1)

IC50 [1] [µg/mL] | Kd [2] [nM] | koff [2] [s⁻¹] | kon [2] [M⁻¹ s⁻¹] | Kd [3] [nM] | koff [3] [s⁻¹] | kon [3] [M⁻¹ s⁻¹] | IC50 [4] [µg/mL] | also measured | Binder
0.174 | 0.172 | 0.000167 | 974000 | 0.17 | 0.000162 | 952000 | 0.113 | – | B1
– | – | – | – | – | – | – | – | binding result [5]: binds | B2
– | – | – | – | – | – | – | – | binding result [6]: binds | B3
– | – | – | – | – | – | – | – | binding result [7]: binds | B4
0.114 | 0.0579 | 0.000106 | 1.84e+06 | 0.057 | 0.000101 | 1.77e+06 | 0.0696 | – | B5
